This note sets out measurements from paper PMC4523612 (The Journal of Cell Biology, 2015).

Experiment [1] deals with Eg5 (UniProt P52732).
Experiment [2] addresses T1, Eg5 (UniProt P52732 1-1056).
T1 sequence: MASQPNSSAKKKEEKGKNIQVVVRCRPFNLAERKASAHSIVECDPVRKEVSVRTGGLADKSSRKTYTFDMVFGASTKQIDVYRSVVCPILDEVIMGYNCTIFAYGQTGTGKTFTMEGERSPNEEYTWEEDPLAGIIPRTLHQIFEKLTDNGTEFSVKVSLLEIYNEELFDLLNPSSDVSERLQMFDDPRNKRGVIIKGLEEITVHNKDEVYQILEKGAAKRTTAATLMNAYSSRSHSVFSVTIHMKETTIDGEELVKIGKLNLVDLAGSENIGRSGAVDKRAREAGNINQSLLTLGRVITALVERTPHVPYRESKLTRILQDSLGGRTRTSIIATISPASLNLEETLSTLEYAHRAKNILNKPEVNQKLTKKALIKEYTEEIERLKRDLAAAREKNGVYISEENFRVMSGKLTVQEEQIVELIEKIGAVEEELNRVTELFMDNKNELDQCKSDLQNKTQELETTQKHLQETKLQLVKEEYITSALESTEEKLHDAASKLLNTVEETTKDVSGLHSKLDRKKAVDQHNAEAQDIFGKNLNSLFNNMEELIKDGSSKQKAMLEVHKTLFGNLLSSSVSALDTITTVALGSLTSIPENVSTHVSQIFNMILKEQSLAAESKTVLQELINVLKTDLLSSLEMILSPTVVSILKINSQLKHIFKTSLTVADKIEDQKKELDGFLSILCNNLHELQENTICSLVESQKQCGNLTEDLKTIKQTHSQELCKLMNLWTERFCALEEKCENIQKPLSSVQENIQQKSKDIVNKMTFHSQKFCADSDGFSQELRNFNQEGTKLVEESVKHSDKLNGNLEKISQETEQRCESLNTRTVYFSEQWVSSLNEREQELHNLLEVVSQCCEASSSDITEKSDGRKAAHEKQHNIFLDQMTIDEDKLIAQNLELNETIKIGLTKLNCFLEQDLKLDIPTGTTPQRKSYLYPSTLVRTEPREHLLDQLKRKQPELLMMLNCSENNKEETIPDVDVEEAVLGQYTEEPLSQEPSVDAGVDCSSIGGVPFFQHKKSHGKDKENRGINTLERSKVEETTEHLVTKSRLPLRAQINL

“GFP-TPX2-2D (from UniProt Q9ULW0 1-747) (natural protein)” returned a binding relative to WT (% less than WT) with Eg5 [1] of 41.

B1: GFP-TPX2-2A (S121/125A) (natural protein)
chain: MSQVKSSYSYDAPSDFINFSSLDDEGDTQNIDSWFEEKANLENKLLGKNGTGGLFQGKTPLRKANLQQAIVTPLKPVDNTYYKEAEKENLVEQSIPSNACSSLEVEAAISRKTPAQPQRRALRLAAQKDLEQKEKHHVKMKAKRCATPVIIDEILPSKKMKVSNNKKKPEEEGSAHQDTAEKNASSPEKAKGRHTVPCMPPAKQKFLKSTEEQELEKSMKMQQEVVEMRKKNEEFKKLALAGIGQPVKKSVSQVTKSVDFHFRTDERIKQHPKNQEEYKEVNFTSELRKHPSSPARVTKGCTIVKPFNLSQGKKRTFDETVSTYVPLAQQVEDFHKRTPNRYHLRSKKDDINLLPSKSSVTKICRDPQTPVLQTKHRARAVTCKSTAELEAEELEKLQQYKFKARELDPRILEGGPILPKKPPVKPPTEPIGFDLEIEKRIQERESKKKTEDEHFEFHSRPCPTKILEDVVGVPEKKVLPITVPKSPAFALKNRIRMPTKEDEEEDEPVVIKAQPVPHYGVPFKPQIPEARTVEICPFSFDSRDKERQLQKEKKIKELQKGEVPKFKALPLPHFDTINLPEKKVKNVTQIEPFCLETDRRGALKAQTWKHQLEEELRQQKEAACFKARPNTVISQEPFVPKKEKKSVAEGLSGSLVQEPFQLATEKRAKERQELEKRMAEVEAQKAQQLEEARLQEEEQKKEELARLRRELVHKANPIRKYQGLEIKSSDQPLTVPVSPKFSTRFHC
As to B1, in the experiment with Eg5 [2], the “binding relative to WT” value worked out at 41 % less than WT.
